Source: publication PMC10798628

Assays:
[1] = molecular target: receptor for activated protein C kinase 1 (RACK1) (human (endogenous in Caco-2)) (UniProt P63244)
[2] = molecular target: receptor for activated protein C kinase 1 (RACK1) (human (endogenous in Caco-2)) (UniProt P63244); remark: listed apart in the source

Substance	inhibition rate of anti-RACK1 antibody on T. spiralis IIL invasion of the Caco-2 monolayer, compared to the PBS group [1] [%]	inhibition rate of the RACK1 inhibitor HO on T. spiralis IIL invasion of the Caco-2 monolayer, compared to the PBS group [1] [%]	expression level of RACK1 in Caco-2 cells treated with rTsSPc, Western blot, increase compared to the PBS group [2] [folds]	p-ERK1/2 level in Caco-2 cells treated with rTsSPc, Western blot, increase compared to the PBS group [2] [folds]
recombinant Trichinella spiralis serine proteinase with GST tag (rTsSPc)	5.12	7.37		
recombinant Trichinella spiralis serine proteinase with GST tag (rTsSPc) (enzyme)			2.11	18.3
